Test results as given in patent US20230235075A1 (DYNAMICURE BIOTECHNOLOGY, published 2023).

How the values were obtained:
[1] = target: T1, Human CD93 recombinant protein (Sino Biological Inc, Catalog #12589-H08H) (human, UniProt Q9NPY3 22-580, biotinylated with EZ-LINK NHS-PEG4 biotin in the Octet assays); experiment: Octet epitope binning on biotinylated human CD93, antibody 10 µg/ml
T1 construct: also called hCD93; His-tagged human CD93
T1 sequence (looked up): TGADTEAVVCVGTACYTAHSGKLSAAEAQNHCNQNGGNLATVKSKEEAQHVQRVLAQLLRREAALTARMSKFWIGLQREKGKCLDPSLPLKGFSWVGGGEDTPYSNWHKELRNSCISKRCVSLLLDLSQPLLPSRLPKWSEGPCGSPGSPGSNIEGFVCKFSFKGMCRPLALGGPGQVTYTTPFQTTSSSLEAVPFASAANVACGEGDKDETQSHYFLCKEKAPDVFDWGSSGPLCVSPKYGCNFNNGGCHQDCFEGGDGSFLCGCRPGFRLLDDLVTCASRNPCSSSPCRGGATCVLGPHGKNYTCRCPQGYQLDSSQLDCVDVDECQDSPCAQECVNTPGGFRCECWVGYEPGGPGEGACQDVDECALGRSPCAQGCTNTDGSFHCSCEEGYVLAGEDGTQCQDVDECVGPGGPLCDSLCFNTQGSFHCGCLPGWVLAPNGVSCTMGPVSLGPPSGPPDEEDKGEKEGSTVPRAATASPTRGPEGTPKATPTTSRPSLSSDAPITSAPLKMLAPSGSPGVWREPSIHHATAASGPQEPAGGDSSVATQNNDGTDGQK
Procedure: Anti-CD93 antibody epitope bins were determined using Octet QKe (Fortebio). Human CD93 recombinant protein (Sino Biological Inc, Catalog #12589-H08H) were biotinylated using EZ-LINK NHS-PEG4 biotin (Thermo Fisher Scientific). Streptavidin biosensors tips (Fortebio) were used to capture biotinylated human CD93 protein (300 seconds in 5 μg/ml). The baseline was stabilized for 60 seconds in 1× kinetics buffer (Fortebio) before primary anti-CD93 antibodies (10 μg/ml) were allowed to associate for 300 seconds with captured protein. A panel of secondary anti-CD93 antibodies (10 μg/ml) were then allowed to associate with the antigen and primary antibody complex for additional 300 seconds. Signals were recorded for each binding event and data analysis was performed on ForteBio Data Analysis HT 11.1 software.

[2] = target: T2, Human CD93 on the cell surface (human CD93 expressing CHO cells; HUVEC, U937 and KG1a cells) (human, UniProt Q9NPY3 22-652); experiment: summary table, column 'Binding' (assay not given)
T2 construct: whole, on cells; also called hCD93 CHO cells; CHO-hCD93
T2 sequence (looked up): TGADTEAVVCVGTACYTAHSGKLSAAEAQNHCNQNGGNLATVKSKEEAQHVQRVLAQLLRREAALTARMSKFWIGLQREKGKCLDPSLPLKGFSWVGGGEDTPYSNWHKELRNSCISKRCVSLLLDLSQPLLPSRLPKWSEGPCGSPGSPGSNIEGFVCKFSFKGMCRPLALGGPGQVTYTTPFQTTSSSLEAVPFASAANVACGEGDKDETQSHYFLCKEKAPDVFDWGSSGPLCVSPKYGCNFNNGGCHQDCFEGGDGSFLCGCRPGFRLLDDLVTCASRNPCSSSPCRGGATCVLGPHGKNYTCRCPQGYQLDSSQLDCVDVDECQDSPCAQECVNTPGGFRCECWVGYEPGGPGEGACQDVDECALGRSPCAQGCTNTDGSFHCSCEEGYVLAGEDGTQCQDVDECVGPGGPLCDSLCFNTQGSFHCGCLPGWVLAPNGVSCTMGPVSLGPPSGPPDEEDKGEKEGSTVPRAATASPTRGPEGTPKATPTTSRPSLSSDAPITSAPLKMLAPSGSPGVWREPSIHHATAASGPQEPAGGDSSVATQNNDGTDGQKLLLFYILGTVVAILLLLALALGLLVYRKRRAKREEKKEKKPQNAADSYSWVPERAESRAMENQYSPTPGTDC

[3] = target: T1, Human CD93 recombinant protein (Sino …); experiment: ELISA, His-tagged human CD93 coated at 1 µg/mL
Procedure: 17B10 antibody produced by hybridoma (17B10-Hyb in FIG. 33) was compared to recombinant parental 17B10-hFc (17B10-hIgG1 in FIG. 33) and humanized 17B10-mFc (h17B10-H3L3 in FIG. 33) to determine the binding to human CD93. His-tagged human CD93 was coated onto a 96 well plate at 1 μg/mL in 1×PBS overnight at 4° C. The plate was washed with ELISA wash buffer (Boston BioProduct, Inc.) and the wells were blocked with ELISA blocking buffer for 1 hour at 37° C. Purified 17B10 antibodies were serially diluted in ELISA blocking buffer (Boston BioProduct, Inc.) and incubated on the receptor for 1 hour at 37° C. The plate was washed with ELISA wash Buffer. HRP conjugated Anti-mouse Fc was diluted in ELISA blocking buffer and added to the wells containing the hybridoma produced 17B10. HRP conjugated anti-human Fc was added to the well containing the recombinant 17B10 antibodies for 1 hour at 37° C. The plate was washed with ELISA wash Buffer. HRP substrate was added for indirect detection of the antibodies binding to CD93.

[4] = target: T2, Human CD93 on the cell surface (human …); experiment: flow cytometry, primary HUVEC cells, with and without human serum
Procedure: Recombinant parental anti-CD93 antibodies were evaluated for their ability to bind to HUVEC cells in the presence or absence of human serum. The 16E4, 7F3, 16A1, and 17B10 sequences obtained from the hybridoma cells were expressed recombinantly with a human CH1 domain and mouse IgG1 CH2 and CH3 Fc domains. Antibodies were purified using Protein G Sepharose. The resulting antibodies were tested for its binding capacity to a variety of cells that express CD93. […] Cells were quenched with media then counted. Cells were resuspended in FACS buffer (ice cold PBS with 0.5% BSA) and human serum was added to 20% (10% final volume) and put on ice for approximately 20 minutes. 5×10⁴ cells were seeded per well in 100 μL media and incubated with serial diluted anti-CD93 antibodies in 100 μL on ice for 2 hours. Cells were then washed by spinning cells at 1200 rpm for 5 min. Media was discarded and cells were resuspended in 200 μL ice cold FACS buffer. The wash step was repeated and cells were resuspended in 100 μL of secondary antibody, AlexaFluor647 conjugated anti-human IgG or anti-mouse IgG antibodies (Jackson ImmunoResearch), diluted 1:500 in FACS buffer. Plates were blocked from light and incubated 1 hour at 4° C. […] Samples were stored at 4° C. covered in foil, then were acquired in NovoCyte Flow Cytometer and analyzed by NovoExpress software.

[5] = target: T2, Human CD93 on the cell surface (human …); experiment: FACS, human CD93 expressing CHO cells, serially diluted antibody
Procedure: Binding of anti-CD93 antibodies 7F3 and 16E4 to cell surface expressing human CD93 CHO cells was determined by fluorescence activated cell sorting (FACS) assay. Human CD93 expressing CHO cells were detached by incubation with TrypLE reagents (Thermo Fisher), which preserves the integrity of CD93 on the cell surface. Then the cells were incubated with serially diluted anti-CD93 antibodies for 30 minutes in 4° C. After washing by FACS buffer, the cells were incubated with Alexa Fluor 647 conjugated anti-human IgG (Jackson ImmunoResearch) for 30 minutes in 4° C. After washing by FACS buffer twice, the samples were acquired in NovoCyte Flow Cytometer and analyzed by NovoExpress software.

[6] = target: T1, Human CD93 recombinant protein (Sino …); experiment: BLI (Octet QKe), biotinylated CD93 on streptavidin sensors
[7] = target: T2, Human CD93 on the cell surface (human …); experiment: FACS, CHO cells overexpressing human CD93

B1: 16B6 (antibody, V domains shown)
VH: QVQLQQSGPELVKPGASVKISCKASGYAFSRSWMNWVKQRPGKGLEWIGWIYPGDGDTNYNGKFKGKATLTADKSSSTAYMQLSSLTSEDSAAYFCARSATLPYWYFDVWGAGTTVTVSS
VL: DIKMTQSPSSMYASLGERVTITCKASQDIKSYLSWYQQKPWKSPKTLIYYATNLADGVPSRFSGSGSGQDYSLTISSLGSDDTATYYCLQHVESPWTFGGGTKLEIK
notes: Mouse hybridoma monoclonal antibody
- binding result [1]: binds
- binding result [2]: binds

B2: 17B10 (hybridoma) (antibody, V domains shown)
VH: QVQLQQSGPELVKPGASVKISCKASGYAFSSYWLNWVKQRPGKGLEWFGRIYPGDGDTDYNGKFKGKATLTADKSSSTAYMQLRSLTSEDSAVYFCVRGDGYWAMDYWGQGTSVTVSS
VL: DIVMTQAAFSNPVTLGTSASISCRFSKSLLHSNGITYLYWYLQKPGQSPQLLIYQMSNLASGVPDRFSSSGSGTDFTLRISRVEAEDVGVYYCAQNLELPWTFGGGTKLEIK
notes: Mouse hybridoma monoclonal antibody, purified over Protein G
- binding result [3]: binds
- binding result [2]: binds

B3: Recombinant parental 17B10 (human CH1 domain, mouse IgG1 CH2 and CH3 Fc domains) (antibody, V domains shown)
VH: B2 VH
VL: B2 VL
- binding result [4]: binds

B4: recombinant parental 17B10-hFc (antibody, human IgG1, V domains shown)
VH: B2 VH
VL: B2 VL
notes: also called 17B10-hIgG1; recombinant parental 17B10 with the human Fc
- binding result [3]: binds

B5: 16E4-hIgG1 (antibody, V domains shown)
VH: QVQLQQPGAELVKPGASVKLSCKASGYTFTSYWMHWVKQRPGQGLEWIGEIDPSASYTYYNQKFKGKATLTVDKSSSTAYMQLSSLTSEDSAVYYCARSVYYGNKYFDVWGAGTTVTVSS
VL: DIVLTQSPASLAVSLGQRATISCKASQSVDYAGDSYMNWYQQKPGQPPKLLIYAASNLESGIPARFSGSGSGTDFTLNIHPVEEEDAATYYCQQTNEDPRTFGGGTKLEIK
notes: the same paragraph also calls it 'humanized'; also called recombinant 16E4; recombinant chimeric 16E4
- EC50 [5]: 0.24 nM

B6: 10B1 (antibody, V domains shown)
VH: QVQLKQSGPGLVQPSQSLSITCTVSDFSLSSFGVNWVRQPPGKGLEWLGVIWSGGSTDYNVAFISRLSISKDNSKSQVFFKMNNLQADDTAIYYCARNWRYDGYFYAMDYWGQGTSVTVSS
VL: DIVMTQSQKFMSTSTGDRVSVTCKASQNVGTNVAWYQQKPGQSPKALIYSASYRFIGVPDRFTGSGSGTDFTLTITNVQSEDLAEYFCQQYNRNPITFGSGTKLEIK
notes: Mouse hybridoma monoclonal antibody; also called 10B1 mAb
- binding result [6]: binds
- binding result [2]: binds

B7: 7F3-hIgG1 (antibody, V domains shown)
VH: QVQLQQSGADLVRPGASVKLSCKASGYTFTDYEMHWVKQTPVYGLEWIGGIDPETGDTAYNQNFKGKATLTADKSSSAAYMELRSLTSEDSAVYYCTNYGNLYYYAMDYWGQGTSVTVSS
VL: ENVLTQSPAIMSASPGEKVTMTCRASSSVSSSYLHWYQQKSGASPKLWIYSTSNLAFGVPARFSGSGSGTSYSLTISSVEAEDAATYYCQQYSGYPLTFGSGTKLEIK
notes: the same paragraph also calls it 'humanized'; also called recombinant 7F3 antibody; recombinant chimeric 7F3
- EC50 [5]: 0.4 nM

B8: Humanized 17B10 (VH3VL3, i.e., H3L3) (antibody, mouse IgG1, V domains shown)
VH: QVQLVQSGPEVKKPGESLKISCKASGYAFSSYWLNWVRQMPGKGLEWMGRIYPGDGDTDYNGKFKGQVTISADKSSGTAYLQLSSLKASDTAVYFCVRGDGYWAMDYWGQGTLVTVSS
VL: DIVMTQSPDSLAVSLGERATINCRFSKSLLHSNGITYLYWYQQKPGQPPKLLIYQMSNLASGVPDRFSGSGSGTDFTLTISSLQAEDVAVYYCAQNLELPWTFGGGTKLEIK
notes: also called h17B10-H3L3; humanized 17B10-mFc
- binding result [3]: binds
- binding result [7]: binds
